The values below come from paper PMC4333385.

In this data set the test system is Nc1ncnc2c1ncn2[C@@H]1O[C@H](COP(=O)(O)OP(=O)(O)OP(=O)(O)O)[C@@H](O)[C@H]1O. The experiment in a line: steady-state Pi release, MDCC-PBP stopped-flow, Hill fit. It is filed as biochemical, Escherichia coli. Conditions: DNA-free RecQ, SF50 buffer pH 7.5, 5 mM MgCl2, 50 mM NaCl, 25 °C, Hill coefficient 1.3. From the text:
steady-state Pi release, MDCC-PBP stopped-flow, Hill fit on E. coli RecQ helicase

In general, kcat refers to the number of substrate molecules converted per active site and unit of time at saturation. Take “E. coli RecQ helicase (Escherichia coli K-12)”: the K0.5 stood at 28 ± 2 µM and the turnover number (kcat) stood at 0.53 ± 0.05 s⁻¹.
